B1: RA073 (nucleic acid)
DNA: GCGCGTCCTGGATTCGCGGAAACGCGTACACGGAATACCAGCATCGTCTTGATGCCCTTGGAAGTCCGTCCAGCTGACGAGTCCCAAATAGGACGAAACGCGC
modifications: expressed or natural sequence
B2: RA078 (nucleic acid)
DNA: GCGCGTCCTGGATTCGCGGAAACGCGTACATCCAGCTGACGAGTCCCAAATAGGACGAAACGCCGAGAATACCAGCATCGTCTTGATGCCCTTGGAAGTCTCGGC
modifications: expressed or natural sequence
B3: RA058 (nucleic acid)
DNA: GCGCGTCCTGGATTCGCGGAAACGCGTACATCCAGAGAATACCAGCATCGTCTTGATGCCCTTGGAAGTCTCGCTGACGAGTCCCAAATAGGACGAAACGCGC
modifications: expressed or natural sequence
B4: RA061 (nucleic acid)
DNA: GCGCGTCCTGGATTCGCGGAAACGCGTACATCCAGCTGACGAGTCCCAAATAGGACGAAACGCGCGGAATACCAGCATCGTCTTGATGCCCTTGGAAGTCC
modifications: expressed or natural sequence
B5: RA057 (nucleic acid)
DNA: GCGCGTCCTGGATTCGCGGAAACGCGTACATCCAGCTGACGAGTCCCAAATAGGACAGAATACCAGCATCGTCTTGATGCCCTTGGAAGTCTGAAACGCGC
modifications: expressed or natural sequence
B6: RA070 (nucleic acid)
DNA: GCGCGTCCTGGATTCGCGGAAACGCGTACATCCAGCTGAGTGATACCAGCATCGTCTTGATGCCCTTGGCAGCACTACGAGTCCCAAATAGGACGAAACGCGC
modifications: expressed or natural sequence
B7: RA077 (nucleic acid)
DNA: GCGCGTCCAGTGATACCAGCATCGTCTTGATGCCCTTGGCAGCACTTGGATTCGCGGAAACGCGTACATCCAGCTGACGAGTCCCAAATAGGACGAAACGCGC
modifications: expressed or natural sequence
B8: RA006 (nucleic acid)
DNA: GCGCGTCCTGGATTCGCGGAAACGCGTACATCCAGCTGACGAGTCCCAAATAGGACGAAACGAGTGATACCAGCATCGTCTTGATGCCCTTGGCAGCACTCGC
modifications: expressed or natural sequence
B9: RA071 (nucleic acid)
DNA: GCGCGTCCTGGATTCGCGGAAACGCGTACATCCAGCTGACGAGTCCCAAATAGGACGAAACGCGGAATACCAGCATCGTCTTGATGCCCTTGGAAGTCCGCGC
modifications: expressed or natural sequence
B10: RA074 (nucleic acid)
DNA: GCGCGTCCTGGATTCGCGGAAACGCGTACATCCAGCTGACGAGTCAGAATACCAGCATCGTCTTGATGCCCTTGGAAGTCTCCAAATAGGACGAAACGCGC
modifications: expressed or natural sequence
B11: RA068 (nucleic acid)
DNA: GCGCGTCCTGGATTCGCCCGGAATACCAGCATCGTCTTGATGCCCTTGGAAGTCCGGGGAAACGCGTACATCCAGCTGACGAGTCCCAAATAGGACGAAACGCGC
modifications: expressed or natural sequence
B12: RA060 (nucleic acid)
DNA: GCGCGTCCTGGATTCGCGGAAACGCGTACATCCAGCTGACGAGTCCCAAATAGGACGAAACGCGGGAATACCAGCATCGTCTTGATGCCCTTGGAAGTCCC
modifications: expressed or natural sequence
B13: RA063 (nucleic acid)
DNA: GCGCGTCCTGGATTCAGTGATACCAGCATCGTCTTGATGCCCTTGGCAGCACTGCGGAAACGCGTACATCCAGCTGACGAGTCCCAAATAGGACGAAACGCGC
modifications: expressed or natural sequence
B14: RA064 (nucleic acid)
DNA: GCGCGTCCTGGATTCGCGGAAACGCGTACAGAATACCAGCATCGTCTTGATGCCCTTGGAAGTCTATCCAGCTGACGAGTCCCAAATAGGACGAAACGCGC
modifications: expressed or natural sequence
B15: RA007 (nucleic acid)
DNA: GCGCGTCCTGGATTCGCGGAAACGCGTACATCCAGCTGACGAGTCCCAAATAGGACGAAACGCGAGAATACCAGCATCGTCTTGATGCCCTTGGAAGTCTCGCGC
modifications: expressed or natural sequence
B16: RA062 (nucleic acid)
DNA: GCGCGTCCTGGATTCGCGGAAACGCCCGGAATACCAGCATCGTCTTGATGCCCTTGGAAGTCCGGGTACATCCAGCTGACGAGTCCCAAATAGGACGAAACGCGC
modifications: expressed or natural sequence
B17: RA056 (nucleic acid)
DNA: GCGCGTCCTGGATTCGCGGAAACGCGTACATCCAGCTGACGAGTCCCGAGAATACCAGCATCGTCTTGATGCCCTTGGAAGTCTCAAATAGGACGAAACGCGC
modifications: expressed or natural sequence
B18: RA072 (nucleic acid)
DNA: GCGCGTCCTGGATTCGCGGAAACGCGTACCGAGAATACCAGCATCGTCTTGATGCCCTTGGAAGTCTCGATCCAGCTGACGAGTCCCAAATAGGACGAAACGCGC
modifications: expressed or natural sequence
B19: RA067 (nucleic acid)
DNA: GCGCGTCCTGGATTCGCGGAAACGCGTACATCCAGTGATACCAGCATCGTCTTGATGCCCTTGGCAGCACTAGCTGACGAGTCCCAAATAGGACGAAACGCGC
modifications: expressed or natural sequence
B20: RA065 (nucleic acid)
DNA: GCTGTCACCGGAATACCAGCATCGTCTTGATGCCCTTGGAAGTCCGGTCTGATGAGTCCCAGAAGGACGAAACAGC
modifications: expressed or natural sequence
B21: RA066 (nucleic acid)
DNA: GCGCGTCCTGGATTCGCGGAAAGAATACCAGCATCGTCTTGATGCCCTTGGAAGTCTACGCGTACATCCAGCTGACGAGTCCCAAATAGGACGAAACGCGC
modifications: expressed or natural sequence
B22: RA053 (nucleic acid)
DNA: GCGCGTCCTGGATTCGCGGAAACGCGTACATCCAGAGTGATACCAGCATCGTCTTGATGCCCTTGGCAGCACTCTGACGAGTCCCAAATAGGACGAAACGCGC
modifications: expressed or natural sequence
B23: RA075 (nucleic acid)
DNA: GCGCGTCCTGGATTCGCGGAAACGCGTACATCCAGCTGACGAGTCCCAAATAGGACGAAAGTGATACCAGCATCGTCTTGATGCCCTTGGCAGCACTACGCGC
modifications: expressed or natural sequence
B24: RA005 (nucleic acid)
DNA: GCGCGTCCTGGATTCGCGGAAACCGGAATACCAGCATCGTCTTGATGCCCTTGGAAGTCCGGCGCGTACATCCAGCTGACGAGTCCCAAATAGGACGAAACGCGC
modifications: expressed or natural sequence
B25: RA054 (nucleic acid)
DNA: GAGTGATACCAGCATCGTCTTGATGCCCTTGGCAGCACTCGCGTCCTGGATTCGCGGAAACGCGTACATCCAGCTGACGAGTCCCAAATAGGACGAAACGCGC
modifications: expressed or natural sequence
B26: RA069 (nucleic acid)
DNA: GCGCGTCCTGGATTCGCGGAAACGCGTACATCCAGCTGACGAGTCCCGGAATACCAGCATCGTCTTGATGCCCTTGGAAGTCCAAATAGGACGAAACGCGC
modifications: expressed or natural sequence
B27: RA076 (nucleic acid)
DNA: GCGCGTCCTGGATTCGCGGGAGAATACCAGCATCGTCTTGATGCCCTTGGAAGTCTCAAACGCGTACATCCAGCTGACGAGTCCCAAATAGGACGAAACGCGC
modifications: expressed or natural sequence
B28: RA055 (nucleic acid)
DNA: GCGCGTCCTGGATTCGCGGCGAGAATACCAGCATCGTCTTGATGCCCTTGGAAGTCTCGAAACGCGTACATCCAGCTGACGAGTCCCAAATAGGACGAAACGCGC
modifications: expressed or natural sequence
B29: RA059 (nucleic acid)
DNA: GCGCGTCCTGGATTCCCGGAATACCAGCATCGTCTTGATGCCCTTGGAAGTCCGGGCGGAAACGCGTACATCCAGCTGACGAGTCCCAAATAGGACGAAACGCGC
modifications: expressed or natural sequence

tested on: Renilla luciferase RNA; assay: Barcoded aptazyme variant library screen: un-cleaved Renilla luciferase RNA by barcode read counts, HEK293-T cells; type: cell-based; settings: un-cleaved Renilla luciferase RNA, HEK293-T cells cultured with 1 mM theophylline (ON) over without theophylline (OFF); barcode read counts, triplicate
Procedure, shortened: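 Aptazyme variants (seven theophylline aptamers inserted after each T3H48 ribozyme nucleotide, 9-nt barcoded) cloned into the 3′ UTR of Renilla luciferase in psiCHECK-2; cells cultured ± theophylline, in triplicate. RNA and DNA barcodes amplified and sequenced; normalized read counts gave un-cleaved RNA fraction and ON/OFF fold-change.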

| Molecule | Fold change in RNA expression between the ON state and the OFF state |
| --- | --- |
| B1 | 1.8 fold |
| B2 | 1.8 fold |
| B3 | 2.0 fold |
| B4 | 1.9 fold |
| B5 | 2.0 fold |
| B6 | 1.8 fold |
| B7 | 1.8 fold |
| B8 | 5.0 fold |
| B9 | 1.8 fold |
| B10 | 1.8 fold |
| B11 | 1.8 fold |
| B12 | 1.9 fold |
| B13 | 1.9 fold |
| B14 | 1.9 fold |
| B15 | 4.5 fold |
| B16 | 1.9 fold |
| B17 | 2.0 fold |
| B18 | 1.8 fold |
| B19 | 1.8 fold |
| B20 | 1.9 fold |
| B21 | 1.9 fold |
| B22 | 2.0 fold |
| B23 | 1.8 fold |
| B24 | 5.2 fold |
| B25 | 2.0 fold |
| B26 | 1.8 fold |
| B27 | 1.8 fold |
| B28 | 2.0 fold |
| B29 | 1.9 fold |
